Source: PMC5474753 (Journal of molecular biology, 2016)

Molecular target: the molecule itself
Experiment: FRET or BRET

B1: full-length FGFR3 C228R mutant (CHO) (receptor)
chain: ESLGTEQRVVGRAAEVPGPEPGQQEQLVFGSGDAVELSCPPPGGGPMGPTVWVKDGTGLVPSERVLVGPQRLQVLNASHEDSGAYSCRQRLTQRVLCHFSVRVTDAPSSGDDEDGEDEAEDTGVDTGAPYWTRPERMDKKLLAVPAANTVRFRCPAAGNPTPSISWLKNGREFRGEHRIGGIKLRHQQWSLVMESVVPSDRGNYTRVVENKFGSIRQTYTLDVLERSPHRPILQAGLPANQTAVLGSDVEFHCKVYSDAQPHIQWLKHVEVNGSKVGPDGTPYVTVLKTAGANTTDKELEVLSLHNVTFEDAGEYTCLAGNSIGFSHHSAWLVVLPAEEELVEADEAGSVYAGILSYGVGFFLFILVVAAVTLCRLRSPPKKGLGSPTVHKISRFPLKRQVSLESNASMSSNTPLVRIARLSSGEGPTLANVSELELPADPKWELSRARLTLGKPLGEGCFGQVVMAEAIGIDKDRAAKPVTVAVKMLKDDATDKDLSDLVSEMEMMKMIGKHKNIINLLGACTQGGPLYVLVEYAAKGNLREFLRARRPPGLDYSFDTCKPPEEQLTFKDLVSCAYQVARGMEYLASQKCIHRDLAARNVLVTEDNVMKIADFGLARDVHNLDYYKKTTNGRLPVKWMAPEALFDRVYTHQSDVWSFGVLLWEIFTLGGSPYPGIPVEELFKLLKEGHRMDKPANCTHDLYMIMRECWHAAPSQRPTFKQLVEDLDRVLTVTSTDEYLDLSAPFEQYSPGGQDTPSSSSSGDDSVFAHDLLPPAPPSSGGSRT
stoichiometry N: 2
